One block for each molecule: values may come before it.
Legend:
RrA [1] = molecular target: T1, RrA (Rhodospirillum rubrum, UniProt Q2RMX1, Y21F); assay: X-ray crystal structure, […] Å; format: binding; conditions: active site, three of four protomers; also 8up3 (co-purified L-Asp in some protomers)
T1 construct: gene Rru_A3730; full length, 172 residues, Lys149 natural variant (Glu149 in the first report); synthetic gene in pET15b, N-terminal His6 tag removed by TEV protease, expressed in E. coli BL21(DE3) RIPL; homotetramer, active site completed by Tyr21 and Asn26 of another protomer

RrA [2] = molecular target: T2, RrA (Rhodospirillum rubrum, UniProt Q2RMX1); assay: nanoDSF back-reflection, aggregation onset; format: binding; conditions: 20 mM ligand, 0.1 M Na-citrate pH 5.0, 0.2 M NaCl; 42.3 °C without ligand
T2 construct: gene Rru_A3730; full length, 172 residues, Lys149 natural variant (Glu149 in the first report); synthetic gene in pET15b, N-terminal His6 tag removed by TEV protease, expressed in E. coli BL21(DE3) RIPL; homotetramer, active site completed by Tyr21 and Asn26 of another protomer
T2 sequence (Q2RMX1 1-172): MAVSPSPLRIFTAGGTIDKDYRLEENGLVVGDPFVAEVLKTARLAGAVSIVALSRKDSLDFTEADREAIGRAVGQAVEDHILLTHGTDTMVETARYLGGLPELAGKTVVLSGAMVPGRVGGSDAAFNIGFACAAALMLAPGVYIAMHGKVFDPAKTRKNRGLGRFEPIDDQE

[3] = molecular target: RrA(K19A) (Rhodospirillum rubrum); assay: dynamic light scattering; protein at 0.22-1.1 mM in the standard buffer (50 mM HEPES, 200 mM NaCl, pH 7), 20°C, DynaPro Nanostar; proteins modelled as globular; oligomer in solution
[4] = molecular target: RrA(K19A) (Rhodospirillum rubrum); assay: crystal structure; hanging drops, 293 K, protein 19-21 mg/mL in the standard buffer, with or without L-Asp; tetramer as a dimer of tight dimers, in the asymmetric unit or made by crystal symmetry
[5] = molecular target: RrA(K19E) (Rhodospirillum rubrum); assay: dynamic light scattering; protein at 0.22-1.1 mM in the standard buffer (50 mM HEPES, 200 mM NaCl, pH 7), 20°C, DynaPro Nanostar; proteins modelled as globular; oligomer in solution
[6] = molecular target: RrA(K19E) (Rhodospirillum rubrum); assay: crystal structure; hanging drops, 293 K, protein 19-21 mg/mL in the standard buffer, with or without L-Asp; tetramer as a dimer of tight dimers, in the asymmetric unit or made by crystal symmetry
[7] = molecular target: RrA(K19Q) (Rhodospirillum rubrum); assay: dynamic light scattering; protein at 0.22-1.1 mM in the standard buffer (50 mM HEPES, 200 mM NaCl, pH 7), 20°C, DynaPro Nanostar; proteins modelled as globular; oligomer in solution
[8] = molecular target: RrA(K19Q) (Rhodospirillum rubrum); assay: crystal structure; hanging drops, 293 K, protein 19-21 mg/mL in the standard buffer, with or without L-Asp; tetramer as a dimer of tight dimers, in the asymmetric unit or made by crystal symmetry
[9] = molecular target: RrA(K158M) (Rhodospirillum rubrum); assay: dynamic light scattering; protein at 0.22-1.1 mM in the standard buffer (50 mM HEPES, 200 mM NaCl, pH 7), 20°C, DynaPro Nanostar; proteins modelled as globular; oligomer in solution
[10] = molecular target: RrA(K158M) (Rhodospirillum rubrum); assay: crystal structure; hanging drops, 293 K, protein 19-21 mg/mL in the standard buffer, with or without L-Asp; tetramer as a dimer of tight dimers, in the asymmetric unit or made by crystal symmetry
[11] = molecular target: RrA(Y21A) (Rhodospirillum rubrum); assay: dynamic light scattering; protein at 0.22-1.1 mM in the standard buffer (50 mM HEPES, 200 mM NaCl, pH 7), 20°C, DynaPro Nanostar; proteins modelled as globular; oligomer in solution
[12] = molecular target: RrA(Y21A) (Rhodospirillum rubrum); assay: crystal structure; hanging drops, 293 K, protein 19-21 mg/mL in the standard buffer, with or without L-Asp; tetramer as a dimer of tight dimers, in the asymmetric unit or made by crystal symmetry
[13] = molecular target: RrA(Y21F) (Rhodospirillum rubrum); assay: dynamic light scattering; protein at 0.22-1.1 mM in the standard buffer (50 mM HEPES, 200 mM NaCl, pH 7), 20°C, DynaPro Nanostar; proteins modelled as globular; oligomer in solution
[14] = molecular target: RrA(Y21F) (Rhodospirillum rubrum); assay: crystal structure; hanging drops, 293 K, protein 19-21 mg/mL in the standard buffer, with or without L-Asp; tetramer as a dimer of tight dimers, in the asymmetric unit or made by crystal symmetry
[15] = substrate: NC(=O)C[C@H](N)C(=O)O; assay: ammonia release by Nessler's reagent, A480; Lineweaver-Burk; format: biochemical, Rhodospirillum rubrum; conditions: PBS pH 7.4, 20 °C, substrate inhibition above 5 mM
[16] = molecular target: the molecule itself; assay: mass photometry; RrA(wt) at 25 nM and 65 nM in the standard buffer (50 mM HEPES, 200 mM NaCl, pH 7), 20°C, Refeyn TwoMP; minor lower-mass peak only in the 25 nM sample
[17] = molecular target: the molecule itself; assay: dynamic light scattering; protein at 0.22-1.1 mM in the standard buffer (50 mM HEPES, 200 mM NaCl, pH 7), 20°C, DynaPro Nanostar; proteins modelled as globular; oligomer in solution

T1 sequence (Q2RMX1 entry or part of it Y21F): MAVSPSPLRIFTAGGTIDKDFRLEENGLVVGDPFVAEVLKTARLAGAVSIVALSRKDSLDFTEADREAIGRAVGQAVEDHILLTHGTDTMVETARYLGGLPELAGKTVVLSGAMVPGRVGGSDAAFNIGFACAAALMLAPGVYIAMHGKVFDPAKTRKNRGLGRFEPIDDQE

Molecule: N[C@@H](CC(=O)O)C(=O)O [L‐Asp]
X-ray crystal structure, 1.90 Å (RrA [1]): the ligand was present in three out of four protomers
T agg (RrA [2]): 61.3 °C

Molecule: N[C@@H](CCC(=O)O)C(=O)O [L‐Glu]
T agg (RrA [2]): 61.5 °C

Molecule: RrA(K19A) (enzyme)
stoichiometry N [3]: 4
stoichiometry N [4]: 4

Molecule: RrA(K158M) (enzyme)
stoichiometry N [9]: 4
stoichiometry N [10]: 4

Molecule: RrA(Y21F) (enzyme)
stoichiometry N [13]: 4
stoichiometry N [14]: 4

B1: RrA(wt), short-chain L-asparaginase from Rhodospirillum rubrum (enzyme, UniProt Q2RMX1 1-172, looked up)
chain: MAVSPSPLRIFTAGGTIDKDYRLEENGLVVGDPFVAEVLKTARLAGAVSIVALSRKDSLDFTEADREAIGRAVGQAVEDHILLTHGTDTMVETARYLGGLPELAGKTVVLSGAMVPGRVGGSDAAFNIGFACAAALMLAPGVYIAMHGKVFDPAKTRKNRGLGRFEPIDDQE
notes: L-asparaginase RrA of Rhodospirillum rubrum, synthetic gene of GenBank QXG80441.1; protomer of 172 residues (Met1 traced in the structure); the GenBank entry and the PDB entries hold; source: E. coli BL21(DE3) RIPL, pET15b, purified (HisTrap, TEV cleavage, second HisTrap flow-through, Superdex 75); not shown: His6, N-terminal, cleaved
Km [15]: 3.6 ± 0.3 mM
kcat [15]: 58.2 ± 3.0 s⁻¹
stoichiometry N [16]: 2
stoichiometry N [17]: 4

Next, values leading:

stoichiometry N [5]: 4
stoichiometry N [6]: 4
Molecule: RrA(K19E) (enzyme)

stoichiometry N [7]: 4
stoichiometry N [8]: 4
Molecule: RrA(K19Q) (enzyme)

stoichiometry N [11]: 4
stoichiometry N [12]: 4
Molecule: RrA(Y21A) (enzyme)
